Where two headings read alike, the source gives them in different places.
Legend:
Assay in all cases: split reporter
SmBiT-CHIP K30A = molecular target: SmBiT-CHIP K30A
SmBiT-CHIP [1] = molecular target: SmBiT-CHIP
SmBiT-CHIP [2] = molecular target: SmBiT-CHIP; remark: listed apart in the source
SmBiT-CHIP-FLAG = molecular target: SmBiT-CHIP-FLAG
Chain of SmBiT-CHIP-FLAG (Q9UNE7 whole entry): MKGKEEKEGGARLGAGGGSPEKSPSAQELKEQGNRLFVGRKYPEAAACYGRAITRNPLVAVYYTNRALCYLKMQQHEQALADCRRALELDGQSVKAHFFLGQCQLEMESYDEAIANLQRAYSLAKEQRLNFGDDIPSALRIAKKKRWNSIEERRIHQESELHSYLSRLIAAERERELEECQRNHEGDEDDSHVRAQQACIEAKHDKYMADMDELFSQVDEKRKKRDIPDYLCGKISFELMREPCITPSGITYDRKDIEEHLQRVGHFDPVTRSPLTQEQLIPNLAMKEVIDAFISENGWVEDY

Chain of SmBiT-CHIP (Q9UNE7 whole entry): as above

| Binder | fold increase in luminescence over the negative control (SmBiT-CHIP K30A) [fold] | fold increase in luminescence over the negative control (SmBiT-CHIP [1]) [fold] | fold increase in luminescence over the negative control (SmBiT-CHIP [2]) [fold] | luminescence with dox (SmBiT-CHIP-FLAG) [RLU] |
| --- | --- | --- | --- | --- |
| GGSGIEEVD [LgBiT-IEEVD] | 97 | 180 | 160 to 180 |  |
| GGSGLWWPD [LgBiT-LWWPD] |  | 300 |  |  |
| GGSGIEEVD [myc-LgBiT-IEEVD] |  |  |  | 47300 |

Reference: article PMC8054679
